Laboratory results: IntAct's records for PubMed 36931259

B1: 14-3-3 protein sigma (Homo sapiens), P31947 (parent)
chain: MERASLIQKAKLAEQAERYEDMAAFMKGAVEKGEELSCEERNLLSVAYKNVVGGQRAAWRVLSSIEQKSNEEGSEEKGPEVREYREKVETELQGVCDTVLGLLDSHLIKEAGDAESRVFYLKMKGDYYRYLAEVATGDDKKRIIDSARSAYQEAMDISKKEMPPTNPIRLGLALNFSVFHYEIANSPEEAISLAKTTFDEAMADLHTLSEDSYKDSTLIMQLLRDNLTLWTADNAGEEGGEAPQEPQS

Variants of: B1
Conditions: with MAP3K14, Q99558

Row | Variant | effect of a mutation on the interaction
1 | K49E;R56E;V178D | decreasing interaction strength

Variants of: B1
Conditions: with limk2_human LIMK2, P53671
Chain of limk2_human LIMK2, P53671 (P53671 whole entry, looked up): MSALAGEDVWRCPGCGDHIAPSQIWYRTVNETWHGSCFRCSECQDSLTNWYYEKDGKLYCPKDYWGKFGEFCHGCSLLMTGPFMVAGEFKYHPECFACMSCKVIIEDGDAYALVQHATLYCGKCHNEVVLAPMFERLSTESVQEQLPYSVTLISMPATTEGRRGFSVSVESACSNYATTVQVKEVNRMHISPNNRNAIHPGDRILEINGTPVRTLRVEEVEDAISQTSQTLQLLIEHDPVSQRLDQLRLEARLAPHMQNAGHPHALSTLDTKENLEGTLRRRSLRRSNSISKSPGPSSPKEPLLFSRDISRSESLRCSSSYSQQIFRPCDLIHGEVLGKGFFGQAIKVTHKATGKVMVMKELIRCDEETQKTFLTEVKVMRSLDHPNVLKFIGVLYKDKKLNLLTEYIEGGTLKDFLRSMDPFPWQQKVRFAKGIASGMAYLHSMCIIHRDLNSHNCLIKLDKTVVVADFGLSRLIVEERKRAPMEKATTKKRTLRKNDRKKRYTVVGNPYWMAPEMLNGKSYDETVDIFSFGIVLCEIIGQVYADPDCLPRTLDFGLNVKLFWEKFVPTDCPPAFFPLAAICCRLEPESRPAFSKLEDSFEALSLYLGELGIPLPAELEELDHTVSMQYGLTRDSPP

Row | Variant | effect of a mutation on the interaction
2 | K49E;R56E;V178D | decreasing interaction strength

Variants of: B1
Conditions: with m3k9_human MAP3K9, P80192

Row | Variant | effect of a mutation on the interaction
3 | K49E;R56E;V178D | decreasing interaction strength

Variants of: B1
Conditions: with tesk2_human TESK2, Q96S53

Row | Variant | effect of a mutation on the interaction
4 | K49E;R56E;V178D | decreasing interaction strength

Variants of: B1
Conditions: with mk04_human MAPK4, P31152

Row | Variant | effect of a mutation on the interaction
5 | K49E;R56E;V178D | decreasing interaction strength

Variants of: B1
Conditions: with wnk1_human WNK1, Q9H4A3

Row | Variant | effect of a mutation on the interaction
6 | K49E;R56E;V178D | decreasing interaction strength

Variants of: B1
Conditions: with abl1_human ABL1, P00519

Row | Variant | effect of a mutation on the interaction
7 | K49E;R56E;V178D | decreasing interaction strength

Variants of: B1
Conditions: with mast2_human MAST2, Q6P0Q8

Row | Variant | effect of a mutation on the interaction
8 | K49E;R56E;V178D | decreasing interaction strength

Variants of: B1
Conditions: with dyr1b_human DYRK1B

Row | Variant | effect of a mutation on the interaction
9 | K49E;R56E;V178D | decreasing interaction strength

Variants of: B1
Conditions: with wnk4_human WNK4, Q96J92

Row | Variant | effect of a mutation on the interaction
10 | K49E;R56E;V178D | decreasing interaction strength

Variants of: B1
Conditions: with clk3_human CLK3, P49761

Row | Variant | effect of a mutation on the interaction
11 | K49E;R56E;V178D | decreasing interaction strength

Variants of: B1
Conditions: with cdk18_human CDK18, Q07002

Row | Variant | effect of a mutation on the interaction
12 | K49E;R56E;V178D | decreasing interaction strength

Variants of: B1
Conditions: with lck_human LCK

Row | Variant | effect of a mutation on the interaction
13 | K49E;R56E;V178D | decreasing interaction strength

Variants of: B1
Conditions: with ntrk3_human NTRK3, Q16288

Row | Variant | effect of a mutation on the interaction
14 | K49E;R56E;V178D | decreasing interaction strength

Variants of: B1
Conditions: with mp2k7_human MAP2K7, O14733
Chain of mp2k7_human MAP2K7, O14733 (O14733 whole entry): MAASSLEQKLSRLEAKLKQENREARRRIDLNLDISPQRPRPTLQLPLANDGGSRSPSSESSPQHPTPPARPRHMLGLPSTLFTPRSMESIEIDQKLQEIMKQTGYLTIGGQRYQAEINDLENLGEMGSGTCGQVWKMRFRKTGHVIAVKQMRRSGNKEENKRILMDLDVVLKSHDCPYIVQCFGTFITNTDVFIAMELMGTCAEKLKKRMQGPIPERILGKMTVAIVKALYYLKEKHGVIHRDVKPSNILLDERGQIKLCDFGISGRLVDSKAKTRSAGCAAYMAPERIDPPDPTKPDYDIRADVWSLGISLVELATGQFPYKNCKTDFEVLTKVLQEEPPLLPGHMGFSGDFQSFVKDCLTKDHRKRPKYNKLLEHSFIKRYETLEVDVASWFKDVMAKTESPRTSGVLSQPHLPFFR

Row | Variant | effect of a mutation on the interaction
15 | K49E;R56E;V178D | decreasing interaction strength

Variants of: B1
Conditions: with kkcc1_human CAMKK1, Q8N5S9

Row | Variant | effect of a mutation on the interaction
16 | K49E;R56E;V178D | decreasing interaction strength

Variants of: B1
Conditions: with tesk1_human TESK1, Q15569
Chain of tesk1_human TESK1, Q15569 (Q15569 whole entry, looked up): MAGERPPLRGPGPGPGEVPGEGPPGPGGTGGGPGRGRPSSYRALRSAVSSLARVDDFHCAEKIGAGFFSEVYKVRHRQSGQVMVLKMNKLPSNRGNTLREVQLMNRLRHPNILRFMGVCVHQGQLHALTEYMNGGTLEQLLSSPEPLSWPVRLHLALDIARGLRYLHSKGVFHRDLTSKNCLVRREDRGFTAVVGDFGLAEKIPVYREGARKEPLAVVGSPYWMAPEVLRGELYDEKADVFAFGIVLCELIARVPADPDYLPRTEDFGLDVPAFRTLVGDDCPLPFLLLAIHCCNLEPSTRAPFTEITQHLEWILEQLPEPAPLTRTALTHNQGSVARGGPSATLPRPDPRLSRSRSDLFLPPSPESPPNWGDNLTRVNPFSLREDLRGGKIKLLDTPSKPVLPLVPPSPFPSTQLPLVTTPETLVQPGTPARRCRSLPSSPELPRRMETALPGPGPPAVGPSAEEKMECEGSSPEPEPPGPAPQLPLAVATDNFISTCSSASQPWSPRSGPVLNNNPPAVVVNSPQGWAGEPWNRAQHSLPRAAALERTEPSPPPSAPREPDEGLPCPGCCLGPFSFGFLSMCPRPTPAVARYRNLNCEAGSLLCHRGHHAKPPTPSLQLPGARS

Row | Variant | effect of a mutation on the interaction
17 | K49E;R56E;V178D | decreasing interaction strength

Variants of: B1
Conditions: with ilk_human ILK

Row | Variant | effect of a mutation on the interaction
18 | K49E;R56E;V178D | decreasing interaction strength

Variants of: B1
Conditions: with srpk3_human SRPK3, Q9UPE1

Row | Variant | effect of a mutation on the interaction
19 | K49E;R56E;V178D | decreasing interaction strength

Variants of: B1
Conditions: with btk_human BTK

Row | Variant | effect of a mutation on the interaction
20 | K49E;R56E;V178D | decreasing interaction strength

Variants of: B1
Conditions: with kpce_human PRKCE

Row | Variant | effect of a mutation on the interaction
21 | K49E;R56E;V178D | decreasing interaction strength

Variants of: B1
Conditions: with plk2_human PLK2, Q9NYY3

Row | Variant | effect of a mutation on the interaction
22 | K49E;R56E;V178D | decreasing interaction strength

Variants of: B1
Conditions: with st32c_human STK32C

Row | Variant | effect of a mutation on the interaction
23 | K49E;R56E;V178D | decreasing interaction strength

Variants of: B1
Conditions: with mylk2_human MYLK2, Q9H1R3

Row | Variant | effect of a mutation on the interaction
24 | K49E;R56E;V178D | decreasing interaction strength

Variants of: B1
Conditions: with ripk2_human RIPK2, O43353
Chain of ripk2_human RIPK2, O43353 (O43353 whole entry): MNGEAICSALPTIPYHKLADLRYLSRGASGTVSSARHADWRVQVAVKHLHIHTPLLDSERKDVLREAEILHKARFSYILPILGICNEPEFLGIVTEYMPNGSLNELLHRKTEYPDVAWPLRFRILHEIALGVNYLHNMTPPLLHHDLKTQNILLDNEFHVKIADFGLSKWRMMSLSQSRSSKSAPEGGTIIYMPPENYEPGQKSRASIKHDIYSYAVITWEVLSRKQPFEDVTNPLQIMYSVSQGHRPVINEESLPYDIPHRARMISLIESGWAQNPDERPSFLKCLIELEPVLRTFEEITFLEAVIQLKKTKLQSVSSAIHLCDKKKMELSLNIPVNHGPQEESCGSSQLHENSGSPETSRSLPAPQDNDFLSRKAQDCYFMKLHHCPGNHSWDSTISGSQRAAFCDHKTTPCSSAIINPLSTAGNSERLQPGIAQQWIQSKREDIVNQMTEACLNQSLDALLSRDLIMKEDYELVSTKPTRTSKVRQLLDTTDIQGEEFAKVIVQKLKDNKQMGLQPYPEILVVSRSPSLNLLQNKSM

Row | Variant | effect of a mutation on the interaction
25 | K49E;R56E;V178D | decreasing interaction strength

Variants of: B1
Conditions: with m4k4_human MAP4K4, O95819
Chain of m4k4_human MAP4K4, O95819 (O95819 whole entry, looked up): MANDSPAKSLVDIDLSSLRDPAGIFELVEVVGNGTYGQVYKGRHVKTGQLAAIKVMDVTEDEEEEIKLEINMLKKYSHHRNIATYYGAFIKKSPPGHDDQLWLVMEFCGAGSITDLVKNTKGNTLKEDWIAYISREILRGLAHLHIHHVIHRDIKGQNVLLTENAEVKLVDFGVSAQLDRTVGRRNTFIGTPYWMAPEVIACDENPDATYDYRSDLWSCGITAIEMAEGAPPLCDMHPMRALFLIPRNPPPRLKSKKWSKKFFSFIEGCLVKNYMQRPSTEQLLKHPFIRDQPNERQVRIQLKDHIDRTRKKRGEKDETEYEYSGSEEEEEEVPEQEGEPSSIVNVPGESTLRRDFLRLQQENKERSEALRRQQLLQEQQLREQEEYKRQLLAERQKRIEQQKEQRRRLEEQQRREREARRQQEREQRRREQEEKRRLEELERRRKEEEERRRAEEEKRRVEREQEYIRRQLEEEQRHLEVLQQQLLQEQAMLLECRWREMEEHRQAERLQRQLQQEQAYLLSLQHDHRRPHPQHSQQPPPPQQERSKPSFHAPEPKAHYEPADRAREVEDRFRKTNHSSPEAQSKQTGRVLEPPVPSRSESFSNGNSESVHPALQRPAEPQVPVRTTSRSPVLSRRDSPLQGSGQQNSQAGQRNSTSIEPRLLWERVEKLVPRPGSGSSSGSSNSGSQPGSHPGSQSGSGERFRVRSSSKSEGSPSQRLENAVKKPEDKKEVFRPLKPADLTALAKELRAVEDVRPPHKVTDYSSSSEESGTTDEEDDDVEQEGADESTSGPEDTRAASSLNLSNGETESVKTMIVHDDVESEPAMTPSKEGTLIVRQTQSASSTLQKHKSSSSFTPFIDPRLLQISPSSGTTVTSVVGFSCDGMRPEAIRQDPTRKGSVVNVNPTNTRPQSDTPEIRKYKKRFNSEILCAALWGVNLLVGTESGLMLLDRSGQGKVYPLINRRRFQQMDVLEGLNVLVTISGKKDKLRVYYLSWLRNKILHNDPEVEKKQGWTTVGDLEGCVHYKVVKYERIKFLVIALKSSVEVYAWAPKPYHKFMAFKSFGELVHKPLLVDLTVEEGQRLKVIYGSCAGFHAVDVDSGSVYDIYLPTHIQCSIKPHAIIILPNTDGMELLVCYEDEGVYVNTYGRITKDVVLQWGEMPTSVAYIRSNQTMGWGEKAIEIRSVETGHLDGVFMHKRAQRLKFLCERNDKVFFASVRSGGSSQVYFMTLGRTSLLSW

Row | Variant | effect of a mutation on the interaction
26 | K49E;R56E;V178D | decreasing interaction strength

Variants of: B1
Conditions: with kc1d_human CSNK1D

Row | Variant | effect of a mutation on the interaction
27 | K49E;R56E;V178D | decreasing interaction strength

Variants of: B1
Conditions: with ks6a2_human RPS6KA2, Q15349

Row | Variant | effect of a mutation on the interaction
28 | K49E;R56E;V178D | decreasing interaction strength

Variants of: B1
Conditions: with alpk1_human ALPK1, Q96QP1

Row | Variant | effect of a mutation on the interaction
29 | K49E;R56E;V178D | decreasing interaction strength

Variants of: B1
Conditions: with kc1e_human CSNK1E

Row | Variant | effect of a mutation on the interaction
30 | K49E;R56E;V178D | decreasing interaction strength

Variants of: B1
Conditions: with kpcg_human PRKCG

Row | Variant | effect of a mutation on the interaction
31 | K49E;R56E;V178D | decreasing interaction strength

Variants of: B1
Conditions: with fak2_human PTK2B

Row | Variant | effect of a mutation on the interaction
32 | K49E;R56E;V178D | decreasing interaction strength

Variants of: B1
Conditions: with cdk3_human CDK3, Q00526

Row | Variant | effect of a mutation on the interaction
33 | K49E;R56E;V178D | decreasing interaction strength

Variants of: B1
Conditions: with limk1_human LIMK1, P53667

Row | Variant | effect of a mutation on the interaction
34 | K49E;R56E;V178D | decreasing interaction strength

Variants of: B1
Conditions: with pak6_human PAK6, Q9NQU5

Row | Variant | effect of a mutation on the interaction
35 | K49E;R56E;V178D | decreasing interaction strength

Variants of: B1
Conditions: with igf1r_human IGF1R

Row | Variant | effect of a mutation on the interaction
36 | K49E;R56E;V178D | decreasing interaction strength

Variants of: B1
Conditions: with aapk2_human PRKAA2, P54646

Row | Variant | effect of a mutation on the interaction
37 | K49E;R56E;V178D | decreasing interaction strength

Variants of: B1
Conditions: with pak4_human PAK4, O96013

Row | Variant | effect of a mutation on the interaction
38 | K49E;R56E;V178D | decreasing interaction strength

Variants of: B1
Conditions: with pgfra_human PDGFRA

Row | Variant | effect of a mutation on the interaction
39 | K49E;R56E;V178D | decreasing interaction strength

Variants of: B1
Conditions: with cdk17_human CDK17, Q00537

Row | Variant | effect of a mutation on the interaction
40 | K49E;R56E;V178D | decreasing interaction strength

Variants of: B1
Conditions: with mink1_human MINK1, Q8N4C8
Chain of mink1_human MINK1, Q8N4C8 (Q8N4C8 whole entry, looked up): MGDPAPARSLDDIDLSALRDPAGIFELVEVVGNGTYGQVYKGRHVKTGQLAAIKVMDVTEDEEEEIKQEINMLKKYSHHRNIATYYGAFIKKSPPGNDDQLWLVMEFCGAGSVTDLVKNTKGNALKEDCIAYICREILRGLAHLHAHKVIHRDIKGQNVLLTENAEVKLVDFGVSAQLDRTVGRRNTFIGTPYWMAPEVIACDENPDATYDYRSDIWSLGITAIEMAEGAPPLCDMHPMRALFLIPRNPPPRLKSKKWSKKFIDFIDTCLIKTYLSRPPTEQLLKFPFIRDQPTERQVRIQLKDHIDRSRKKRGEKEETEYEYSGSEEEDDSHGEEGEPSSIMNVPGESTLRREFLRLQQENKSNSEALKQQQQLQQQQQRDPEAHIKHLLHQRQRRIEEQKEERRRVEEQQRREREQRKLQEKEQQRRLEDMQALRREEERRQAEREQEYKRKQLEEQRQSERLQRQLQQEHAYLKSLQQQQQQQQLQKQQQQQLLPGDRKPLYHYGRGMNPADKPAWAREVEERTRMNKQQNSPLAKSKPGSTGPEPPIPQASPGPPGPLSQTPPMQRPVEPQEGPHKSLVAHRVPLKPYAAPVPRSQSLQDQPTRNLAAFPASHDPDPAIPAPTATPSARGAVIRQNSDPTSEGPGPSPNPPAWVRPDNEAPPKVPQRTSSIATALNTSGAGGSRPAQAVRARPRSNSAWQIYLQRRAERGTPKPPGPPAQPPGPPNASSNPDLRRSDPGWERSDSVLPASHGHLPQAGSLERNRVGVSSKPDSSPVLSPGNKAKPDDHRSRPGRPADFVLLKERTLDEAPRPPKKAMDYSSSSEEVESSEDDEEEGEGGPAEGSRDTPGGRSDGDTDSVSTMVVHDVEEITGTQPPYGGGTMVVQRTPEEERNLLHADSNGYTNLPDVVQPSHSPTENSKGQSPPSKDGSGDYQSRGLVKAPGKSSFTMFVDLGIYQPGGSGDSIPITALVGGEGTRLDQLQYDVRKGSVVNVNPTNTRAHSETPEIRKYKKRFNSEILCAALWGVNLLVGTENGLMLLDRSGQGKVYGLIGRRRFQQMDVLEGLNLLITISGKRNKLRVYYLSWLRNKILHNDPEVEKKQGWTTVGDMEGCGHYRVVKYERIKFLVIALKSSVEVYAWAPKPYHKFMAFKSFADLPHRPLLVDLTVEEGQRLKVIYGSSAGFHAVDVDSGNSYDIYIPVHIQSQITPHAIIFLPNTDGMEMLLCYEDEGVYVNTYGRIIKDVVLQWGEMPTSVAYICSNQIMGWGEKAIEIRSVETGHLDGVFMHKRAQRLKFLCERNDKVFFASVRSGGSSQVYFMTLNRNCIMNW

Row | Variant | effect of a mutation on the interaction
41 | K49E;R56E;V178D | decreasing interaction strength

Variants of: B1
Conditions: with kcc2d_human CAMK2D

Row | Variant | effect of a mutation on the interaction
42 | K49E;R56E;V178D | decreasing interaction strength

Variants of: B1
Conditions: with kcc2a_human CAMK2A

Row | Variant | effect of a mutation on the interaction
43 | K49E;R56E;V178D | decreasing interaction strength

Variants of: B1
Conditions: with dapk2_human DAPK2, Q9UIK4

Row | Variant | effect of a mutation on the interaction
44 | K49E;R56E;V178D | decreasing interaction strength

Variants of: B1
Conditions: with m4k1_human MAP4K1, Q92918

Row | Variant | effect of a mutation on the interaction
45 | K49E;R56E;V178D | decreasing interaction strength

Variants of: B1
Conditions: with erbb4_human ERBB4, Q15303

Row | Variant | effect of a mutation on the interaction
46 | K49E;R56E;V178D | decreasing interaction strength

Variants of: B1
Conditions: with bub1b_human BUB1B

Row | Variant | effect of a mutation on the interaction
47 | K49E;R56E;V178D | decreasing interaction strength
